Legend:
[1] = target: T1, Recombinant human ADAM8 (rHuADAM8) ectodomain protein (aa 17-497), ACRO Biosystems AD8-H5223 (human, UniProt P78325 17-497); assay: adhesion of α9β1 integrin CHO cells to coated rHuADAM8, antibody 20 µg/ml, vs isotype control IgG; mean ± S.D., n=3
T1 construct: Bought protein made in HEK293 cells; The protein clips off its own prodomain (aa 17-191); also called rhADAM8; immunogen
T1 sequence: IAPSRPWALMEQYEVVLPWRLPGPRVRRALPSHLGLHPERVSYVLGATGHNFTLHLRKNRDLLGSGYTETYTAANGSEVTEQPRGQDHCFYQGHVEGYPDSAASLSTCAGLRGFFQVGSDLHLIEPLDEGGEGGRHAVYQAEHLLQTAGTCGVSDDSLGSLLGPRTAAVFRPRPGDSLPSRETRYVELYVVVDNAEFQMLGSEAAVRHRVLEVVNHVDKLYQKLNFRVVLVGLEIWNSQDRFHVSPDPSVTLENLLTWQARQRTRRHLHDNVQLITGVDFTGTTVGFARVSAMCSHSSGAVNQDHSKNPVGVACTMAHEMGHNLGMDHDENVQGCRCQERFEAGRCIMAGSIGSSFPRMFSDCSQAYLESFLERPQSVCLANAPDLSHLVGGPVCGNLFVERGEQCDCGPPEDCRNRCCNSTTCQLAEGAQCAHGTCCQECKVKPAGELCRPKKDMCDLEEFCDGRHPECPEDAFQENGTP
Source text: To mimic this process and evaluate both the presence of an active DI domain on rHuADAM8 and the ability of ADPs to inhibit this activity in vitro, adhesion of Chinese Hamster Ovary (CHO) cells expressing α9β1 integrin vs the negative control αvβ3 integrin was used (Rao et al., J Bone Miner Res, 21(10): 1657-1665, 2006). CHO cells were maintained in DMEM high glucose (Invitrogen) supplemented with 10% FBS, 1% penicillin/streptomycin (Hyclone), L-glutamine (Gibco), non-essential amino acids (Gibco) and 100 μg/ml G418 (Teknova). Adhesion of CHO cells expressing α9β1 integrin or αvβ3 integrin to plates coated with rHuADAM8 (Acro Biosystems, AD8-H5223) was assessed as follows. Briefly, 96-well plates were coated overnight with 1.5 μg of rHuADAM8 per well, blocked with 1% BSA and washed with PBS.
To assess the ability of ADPs to inhibit DI activity, 96-well plates coated with rHuADAM8 as above were pre-treated in duplicate for 2 hours with either PBS, 20 μg/ml of dialyzed or protein A purified ADP, MAB1031 or control isotype-matched IgGs. Unattached cells were washed off and attached cells counted as above.

[2] = target: T2, Recombinant human ADAM9 (R&D Systems, 939-AD-020) (human, UniProt Q13443 29-697); assay: ELISA, coated recombinant ADAM9
T2 sequence (looked up): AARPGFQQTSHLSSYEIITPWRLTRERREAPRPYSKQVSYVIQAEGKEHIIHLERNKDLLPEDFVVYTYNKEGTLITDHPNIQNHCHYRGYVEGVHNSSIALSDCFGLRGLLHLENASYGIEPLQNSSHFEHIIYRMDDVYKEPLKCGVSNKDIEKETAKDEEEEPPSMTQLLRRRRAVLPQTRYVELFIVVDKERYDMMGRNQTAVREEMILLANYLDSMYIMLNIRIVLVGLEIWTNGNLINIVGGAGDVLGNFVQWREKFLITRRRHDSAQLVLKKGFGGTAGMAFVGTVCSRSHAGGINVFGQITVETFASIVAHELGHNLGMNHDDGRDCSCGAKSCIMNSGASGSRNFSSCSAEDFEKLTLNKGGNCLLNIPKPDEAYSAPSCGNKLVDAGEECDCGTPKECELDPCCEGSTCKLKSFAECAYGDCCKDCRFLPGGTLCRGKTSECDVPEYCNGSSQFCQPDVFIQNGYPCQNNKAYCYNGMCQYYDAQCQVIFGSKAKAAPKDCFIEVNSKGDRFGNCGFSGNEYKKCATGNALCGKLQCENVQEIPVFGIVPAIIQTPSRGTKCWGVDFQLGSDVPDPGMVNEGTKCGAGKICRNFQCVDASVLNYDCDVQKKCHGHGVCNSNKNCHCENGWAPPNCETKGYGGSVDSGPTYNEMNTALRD

[3] = target: T1, Recombinant human ADAM8 (rHuADAM8) …; assay: ELISA, coated rHuADAM8
Method: ELISAs were performed to assess the anti-ADAM8 antibodies for binding to rHuADAM8 during preparation and screening stages, using mouse sera, hybridoma supernatants and purified mouse and chimeric ADPs. ELISA plates (96-well) were coated with 1 μg/ml rHuADAM8 (Acro Biosystems, AD8-H5223) overnight at 4° C. Plates were washed three times with phosphate buffered saline (PBS) containing 0.05% Tween 20 (PBST) and blocked with 1% bovine serum albumin (BSA) in PBST at 37° C. for 1 hr. Plates were then exposed to sera, supernatants or purified antibodies for 1 hour at 37° C.
For analysis of antibodies in the serum of mice, pre-bleed and test bleed samples in 6 dilutions ranging from 1:100 to 1:10,000,000 were tested. For analysis of antibodies in hybridoma clone and subclone supernatants, plates were subjected to 50 μl of supernatants. A test bleed sample (1:1000) and hybridoma culture medium were used as positive and negative controls, respectively. For purified antibody characterization, coated plates were incubated with eight increasing concentrations of each specific ADP ranging from 10⁻⁵ to 10³ nM. Normal mouse IgG (1 μg/ml) was used as a negative control to indicate the level of general non-specific binding and a test bleed sample (1:100) was used as a positive control. Samples were washed three times with PBST and incubated for 30 minutes at 37° C. with a secondary goat anti-mouse IgG (Fc specific)-HRP antibody (Sigma A0168, 1:5000). After washing three times with PBST, the signal was developed with addition of 100 μl of the horseradish peroxidase substrate 3,3′,5,5′-Tetramethylbenzidine (TMB) for 10 minutes at room temperature, followed by quenching with 50 μl 1N HCl. Signal was read in a 96-well spectrophotometer at an optical density (OD) of 450 nm.

Binder | % inhibition of α9β1 integrin binding to ADAM8 [1] [% inhibition] | OD 450nm [2] [OD450nm] | EC50 [3] [nM] | binding result [2]
ADP3 (antibody, IgG1, V domains shown) VH: EVKLEESGGGLVQPGGSMKLSCAASGFTFSDAWMDWVRQSPEKGLEWVAEIRGKVNNLATYYVESVKGRFTISRDDSKSSVYLQMNSLRAEDTGIYYCLGRYDATYAMDYWGQGTSVTVSS VL: DVVMTQTPLSLPVSLGDQASISCRSSQSLVHSDGNTYLHWYLQKPGQSPKLLIYKLSNRFSGVPDRFSGSGSGTDFTLKISRVEAEDLGVYFCSQSTHVPWTFGGGTKLEIK | 69.3 | 0.15 | 0.049 | –
ADP13 (antibody, IgG1, V domains shown, also called mADP13; mouse ADP13) VH: EVQLQQSGPEMVKPGTSVKISCKASGYTFTDYYINWVKQSHGKSLEWIGDISPNIGGATYNPKFKGKAILTVDKSARTAYMELRSLTSEDSAVYCCTRGGSSYPYFYAMDYWGQGTSVTVSS VL: DIVMSQSPSSLAVSVGEKVTMSCKSSQSLLYSSNQKKYLAWYQQKPGQSPKLLIYWASTRESGVPDRFTGSGSGTDFTLTISSVKAEDLAVYYCQQFYSYPYTFGGGTKLEINR | 78.5 | 0.12 | 0.054 | no binding (tested: 1 µg/ml)
ADP2 (antibody, V domains shown, also called mADP2; mouse ADP2) VH: EVKLVESGGGLVQPGGSLSLSCAASGFSFPDYYMSWVRQPPGKALEWLGFIRDSANGYTTEYIASVKGRFTFSRDNSQSILYLQMNALRAEDSATYYCARYSRYYGMDYWGQGTSVTVSS VL: SIVMTQTPKILLVSAGDRVTITCKASQTVNYDVAWYQQKPGQSPKPVIYFASNRYTGVPDRFTGSGFGTDFTFTISTVQAEDLAVYFCQQDYSAPWTFGGGTKLEIK | 72 | 0.07 | 0.029 | no binding (tested: 1 µg/ml)

Reference: patent publication US20220227882A1 (TRUSTEES OF TUFTS COLLEGE, published 2022)
